These results are taken from the supplement of paper PMC12042874.

± gives the uncertainty stated by the source.

The nature of this data set: amyloid nucleation score (Sup35N fusion, yeast selection) (log enrichment); library NNK3; higher = more nucleation; inactive = no reads after selection. Summed up:
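In psi-negative yeast, Sup35N fusions carrying peptides of 20 random codons were induced with 100 μM copper sulfate for 24 hours. The cells then grew 7 days at 30°C on medium lacking adenine and uracil, and plasmid inserts from input and output were Illumina-sequenced, excluding sequences with under 100 input reads. Nucleation score is the DiMSum log enrichment of output over input reads, centred on the mode score of non-aggregating sequences.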
In the case of NKDWREVCSKLNLGSCPTPE, the amyloid nucleation score result was “inactive”.

For NKFMIGVRMASGTL, the amyloid nucleation score result is “inactive”. In the case of NKPCYLSSFPQCDHFFVWTD it was “inactive”; in that of NKRGNCVEKDDCFVMYEWNM, “inactive”; in that of NKSLWGC, “inactive”. For NKSWWKYVPIDDGELYMRAV the value was “inactive”; for NKTDCETC, “inactive”; for NKVTLGYMFITSLVRTSS, 0.491 ± 0.15. For NKWLDRNKG the value was “inactive”; for NLCRVMMFSFFTLLV, 1.44 ± 0.1. Take NLDYLVNLLCDYLES: the amyloid nucleation score was -0.703 ± 1.9. In the case of NLFYDFFDYMVSRARGGRVC it was “inactive”. In the case of NLGNVHVLLDQSEPVHCILL it was “inactive”; in that of NLGRFLFSICCASLFAGCNG, -0.245 ± 0.99. For NLLPRCKLIDSWWSSHRLWV the value was -0.809 ± 1.1; for NLLRNAVFIYCKHLNLFDAM, 0.815 ± 0.12. NLPRKGSGWDIHDRRHPWRS: the amyloid nucleation score result was “inactive”. In the case of NLRWV it was 0.478 ± 0.25; in that of NLSGIHIFLVSRLEWVLDNL, “inactive”; in that of NLSLLSLVSFEVEVIQCTMR, “inactive”. In the case of NLSRRIWTHYHTQVNLIGID it was “inactive”; in that of NLSSNVLTAALK, “inactive”. For NLSTFQIYDR the value was “inactive”; for NLTFYMYIELVDLRGNAE, 2.29 ± 0.056.

In turn, NLVAMVYSLLSSNWKEVISK displayed an amyloid nucleation score of -0.406 ± 0.8. For NLWYLVMLISDFCEPRKEWY the value was “inactive”; for NMFRRPTVCTVQEQVTEMRV, “inactive”; for NMGWSSSYH, “inactive”. For NMLCTSL the value was 1.21 ± 0.11; for NMMFILGFFNNKY, 2.38 ± 0.076. As for NNIPCGMGPSSSSCNASD, the amyloid nucleation score entry was “inactive”. For NNLTKM the value was “inactive”; for NNNISFEEWFPS, “inactive”; for NNSSLRTEVLCFDGISQFGG, “inactive”.

For the substance NNSSSMSLINKSTCCLDWSS, the amyloid nucleation score amounted to 2.02 ± 0.063.

For NPIIKKSKLLKGHLSTCPMV, the amyloid nucleation score result is “inactive”.

Turning to NPSVPTQTPVDMWACTKG, the amyloid nucleation score entry was “inactive”. In the case of NPVLWVGRAF it was “inactive”. For NPWPAWPGTSCIRDLQTSIR the value was “inactive”. NQFMGRVV: the amyloid nucleation score result is “inactive”. In the case of NQLYSWWRFYGLNS it was “inactive”; in that of NRINLDSSPLKGYFLINTIT, “inactive”. As to NRISMFLNRT, the amyloid nucleation score result is “inactive”.

Take NRKRFGEMNGRNYSVQGGRW: the amyloid nucleation score entry was “inactive”. For NRLWSYMGTVLFNPFWLVWR the value was “inactive”; for NRRKLYKGSCGLTFRGSRER, “inactive”. For NRSEEIFVSSATELTRLIVH the value was “inactive”; for NRSSKWVISYRATICLLPMD, “inactive”. For NRWIRLLNAISWGYLRMLMV the value was “inactive”.

In the case of NSCQGE, the amyloid nucleation score entry was “inactive”. Take NSCTDSGPMGTSFSCTLGF: the amyloid nucleation score result is “inactive”. In the case of NSFSRINKDIISSNSVG it was “inactive”. In the case of NSGAA it was “inactive”; in that of NSGIFFLVMTSKLNAVLCLA, “inactive”. NSIFSVFIGMMPCLGSMENI displayed an amyloid nucleation score of 3.1 ± 0.081. Take NSISSSRIAVNFAKYGNWDV: the amyloid nucleation score result was “inactive”.

Take NSLDSRMYGI: the amyloid nucleation score result is “inactive”. In the case of NSPNTNVPGFSRGAFAGGRH it was “inactive”; in that of NSRNMVNGHLH, “inactive”; in that of NSSNVFVLIVCMYWKFSYSC, “inactive”.

Take NSTYSSF: the amyloid nucleation score result is “inactive”. For NSVIGVFQLESSRRGLWDFI the value was 1.52 ± 0.11; for NSVPRGMAFFLNAFFSLIYY, “inactive”. In the case of NSVVF it was “inactive”; in that of NSWVNSPFNLS, “inactive”; in that of NTCSCTGFTFAAGDV, -0.33 ± 0.39.

The substance NTEITQLSIVLFCILYQYSV had an amyloid nucleation score of 1.46 ± 0.11. For NTMLKSVMVFWRMLDFRFRL the value was “inactive”. For NTSAPSNATAAFKAITN the value was “inactive”; for NTVSHMY, “inactive”. For NTWILNC the value was “inactive”; for NTWISMVCLLLLSDSNHTVV, 1.84 ± 0.082; for NTWRYN, “inactive”. With NVCGNDGNR, the amyloid nucleation score result was “inactive”. In the case of NVCRLRIFRSVYLLGYYTST it was “inactive”; in that of NVDGKLVD, “inactive”. In the case of NVFLSRFMVMRKMVWFTEF it was “inactive”; in that of NVFNFRVDSSDHPPVSAWWD, “inactive”; in that of NVGITMGCNRTPCLSTWFAV, “inactive”. For NVPGLSCNTSARLWRSSRLS the value was “inactive”; for NVRGEENVKNILSGVL, “inactive”.

Regarding NVRNLGRSFNWMSSCGNLCD, the amyloid nucleation score entry was “inactive”. In the case of NVRVFFVSYVL it was 0.885 ± 0.11; in that of NVVLSVGMFLLKWS, 1.31 ± 0.09. In the case of NVVSWVNHACGWRDRSATMS it was “inactive”. NVWDMEEERWNLKAILTMWA: the amyloid nucleation score entry was “inactive”. For NVWLNGWIVGMGYNNWHILW the value was 1.93 ± 0.072; for NVWQFRFANRSCWFRLDIVC, “inactive”. In the case of NVYNMYS it was 0.945 ± 0.22; in that of NVYTYIRPRRVYK, “inactive”. With NWDMAFNYNLTAFSPKGTNS, the amyloid nucleation score entry is “inactive”. Turning to NWDRTIMCMYY, the amyloid nucleation score amounted to 2.08 ± 0.075. For NWFRMFIGFNSCAIRRIIWD, the amyloid nucleation score entry is “inactive”.

Regarding NWFSSQS, the amyloid nucleation score result is “inactive”. For NWFWLF the value was “inactive”. For NWGLIMVSVEEDTDLGGSGM the value was -0.114 ± 0.88; for NWGVVYYISSCNGNSSHLSS, 1.83 ± 0.097. In the case of NWIRS it was “inactive”; in that of NWRPV, “inactive”; in that of NWRQNEPYSPGSKSLGWHSF, “inactive”. Regarding NYALWFANI, the amyloid nucleation score entry is “inactive”.

With NYDKCSDPRRRRRLFFHLYD, the amyloid nucleation score result was “inactive”. As for NYDVPSDLRWEMLWVAYCRR, the amyloid nucleation score entry is “inactive”. In the case of NYGYRRPVMILPVHR it was “inactive”. In the case of NYHTFSYCI it was “inactive”; in that of NYMVFNIGVGCFTISNTK, 3.14 ± 0.069; in that of NYRWTWPMPTQEALTPNSDS, “inactive”. As for NYVGSSPGVGSRYTCLKSNV, the amyloid nucleation score result was “inactive”. For NYYSGMRLSQNKKTST the value was 0.701 ± 0.11. As to PAELGVVSMCGFLGSAAYQE, the amyloid nucleation score entry was “inactive”. For PAGWGWSCCFDFLSSISKIY the value was “inactive”. PAPMSVFRHVNFFVKFSPSS: the amyloid nucleation score entry was “inactive”.

Consider PASLTRDVTMCFQNRWDPLR, for which the amyloid nucleation score entry is “inactive”.

Turning to PATLQSPISSK, the amyloid nucleation score result was “inactive”. For PATMFI the value was “inactive”; for PAVPLQSNLRRETTFRAGCL, “inactive”.

PCLSMRSNLRGYTWWSVGGY: the amyloid nucleation score worked out at 1.11 ± 0.14. In the case of PDKVWMYCQHICAVKMSLIC it was “inactive”; in that of PELCQCSHCNLLFLWTYYIA, -0.052 ± 0.98; in that of PELVFPMLADRPVRAQKLPC, “inactive”. As for PETWDTRCGV, the amyloid nucleation score stood at 0.03 ± 0.88. As for PFCVMDLSIKWGNMYYFLQT, the amyloid nucleation score entry was “inactive”. For PFFCTMITYNGLVYDIFWRG the value was “inactive”. With PFHGSLDWSTTESAMT, the amyloid nucleation score result was “inactive”.

For PFNRVVVHSDAARGCRPCRP, the amyloid nucleation score result was “inactive”. In the case of PFRFVKNLCGATG it was “inactive”.

In the case of PFWSGMIPIIEDPISGAL, the amyloid nucleation score entry is “inactive”. Turning to PGGKVANESMQSSTHDDPGR, the amyloid nucleation score result was “inactive”. For PGKGKELSRASGSRATV the value was “inactive”; for PGKKL, -0.453 ± 1.4. In turn, PGRGLMRLYCYRFEIKTTEP returned an amyloid nucleation score of 0.82 ± 0.23. Regarding PGSHNS, the amyloid nucleation score entry is “inactive”. For PGVTSMSLSYPGFWVSPS the value was “inactive”.
